Paper PMC5774872

B1: unnamed (parent)
chain 1: MAAQNEQRPERIKTTPYLEGDVLSSDSGPLLSVFALQEIMQKVRQVQADYMTATREVDFTVPDVQQILDDIKALAAAQVYKIVKVPSTSFRHIVTQSRDRVLRVDTYYEEMSQVGDVITEDEPEKFYSTIIKKVRFIRGKGSFILHDIPARDHRGMEVAEPEVLGVEFKNVLPVLTAEHRAMIQNALDGSIIENGNVATRDVDVFIGACSEPFYRIYNRFQGYIEAVQLQELRNSIGWLERLGQRKRITYSQEVLTDFRRQDMIWVLALQLPVNPQVVWDVPRSSIANLIMNIATCLPTGEYIAPNPRISSITLTQRITTTGPFAILTGSTPTAQQLNDVRKIYLALMFPGQIILDLKIDPGERMDPAVRMVAGVVGHLLFTAGGRFTNLTQNMARQLDIALNDYLLYMYNTRVQVNYGPTGEPLDFQIGRNQYDCNVFRADFATGTGYNGWATIDVEYRDPAPYVHAQRYIRYCGIDSRELINPTTYGIGMTYHCYNEMLRMLVAAGKDSEAAYFRSMLPFHMVRFARINQIINEDLHSVFSLPDDMFNALLPDLIAGAHQNADPVVLDVSWISLWFAFNRSFEPTHRNEMLEIAPLIESVYASELSVMKVDMRHLSLMQRRFPDVLIQARPSHFWKAVLNDSPEAVKAVMNLSHSHNFINIRDMMRWVLLPSLQPSLKLVLEEEAWAAANDFEDLMLTDQVYMHRDMLPEPRLDDIERFRQEGFYYTNMLEAPPEIDRVVQYTYEIARLQANMGQFRAALRRIMDDDDWIGFGGVLRTVRVKFFDARPPDDILQGLPFSYDTNEKGGLSYATIKYATETTIFYLIYNVEFSNTPDSLVLINPTYTMTKVFINKRIVERVRVGQILAVLNRRFVAYKGKMRIMDITQSLKMGTKLAAPTV
chain 2: MSAAILLAPGDVIKRSSEELKQRQIQINLVDWMESEGGKEDKTEPKEESKAEGSKDGEGTQSESGQKEEGGKETKDADVDRRIHTAVGSGSGTKGSGERANENANRGDGKVGGGGGDADAGVGATGTNGGRWVVLTEEIARAIESKYGTKIDVYRDEVPAQIIEVERSLQKELGISREGVAEQTERLRDLRRKEKNGTHAKAVERGGRKQRKKAHGDAQREGVEEEKTSEEPARIGITIEGVMSQKKLLSMIGGVERKMAPIGARESAVMLVSNSIKDVVRATAYFTAPTGDPHWKEVAREASKKKNILAYTSTGGDVKTEFLHLIDHL
B2: unnamed (parent)
chain 1: B1 chain 2
chain 2: B1 chain 1

Variants of: B1
Experiment: coimmunoprecipitation (IP anti-Flag MAb), immunoblot gray-value analysis
Conditions: with partner chain of the complex shown, five experiments, means ± SDs, parent: 100, read off a plot

Q: For chain 2 R281A F286A, which percent of parent is on record?
A: 19 % of WT

Q: chain 2 R281A was tested. Which percent of parent did it give?
A: 130 % of WT

Q: chain 2 A282G A284G was tested. Which percent of parent did it give?
A: 45 % of WT

Q: Which percent of parent does the source give for chain 2 R281A Y285A here?
A: 4 % of WT

Q: For chain 2 Y285A F286A, which percent of parent is on record?
A: 2 % of WT

Q: How did the percent of parent turn out when chain 2 R281A Y285A F286A was run?
A: 2 % of WT

Q: For chain 2 Y285A, which percent of parent is on record?
A: 1 % of WT

Q: Which percent of parent does the source give for chain 2 F286A here?
A: 57 % of WT

Variants of: B2
Experiment: coimmunoprecipitation (IP anti-HA MAb), immunoblot gray-value analysis
Conditions: with partner chain of the complex shown, five experiments, means ± SDs, parent: 100, read off a plot

Q: With chain 1 R281A as the variant, how does the percent of parent read?
A: 100 % of WT

Q: With chain 1 Y285A as the variant, how does the percent of parent read?
A: 7 % of WT

Q: Which percent of parent does the source give for chain 1 F286A here?
A: 18 % of WT

Q: Which percent of parent does the source give for chain 1 A282G A284G here?
A: 42 % of WT

Q: chain 1 R281A F286A was tested. Which percent of parent did it give?
A: 1 % of WT

Q: For chain 1 Y285A F286A, which percent of parent is on record?
A: 2 % of WT
